The substances below were run against CD46 (UniProt P15529) (assay: Kd determination, method not stated (column head 'Kd (Oleks)')).
Sequence of UniProt P15529 (P15529 35-343): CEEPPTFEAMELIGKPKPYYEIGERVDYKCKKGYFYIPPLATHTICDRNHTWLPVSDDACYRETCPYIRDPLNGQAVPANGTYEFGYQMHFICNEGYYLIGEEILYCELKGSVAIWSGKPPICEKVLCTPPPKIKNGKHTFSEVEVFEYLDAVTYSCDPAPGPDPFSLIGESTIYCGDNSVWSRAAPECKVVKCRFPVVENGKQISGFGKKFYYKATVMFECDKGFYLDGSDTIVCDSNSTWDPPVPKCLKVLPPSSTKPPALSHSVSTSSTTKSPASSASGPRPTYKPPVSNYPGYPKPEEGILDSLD
Ad11 knob (from UniProt P35774 123-325) showed a Kd of 11.2 nM. Work on “Mutated Ad35 Knob A8: Ile192Val Ile256Val (from UniProt Q92854)” yielded a Kd of 13.7 nM. wtAd35(207Asp) knob was tested, and the Kd was 15 nM.

Reference: patent US20240301362A1
